The subject of data set [1] is trastuzumab (mAb1) N297-linked sugar chain. Description: Hydrolysis activity on antibody sugar chain (sugar chain hydrolysis rate, fully automated electrophoresis). Format: biochemical. Particulars: 0.5 hours after initiation of the reaction; 0.1 mg mAb1, 10 ng enzyme, 37° C., pH 7.5. Here is the method:
The enzyme obtained in Example 2 was measured for hydrolysis activity by the following method. At this time, EndoS was used as a comparative subject.
In sterile water (5 mL), mAb1 (60 mg) was dissolved. The solution was replaced with 50 mM Tris-HCl buffer (pH 7.5) while concentrating the solution by Vivaspin 20 (30,000 MWCO, PES, manufactured by Sartorius).
A reaction solution containing the mAb1 (0.1 mg) and 10 ng of the enzyme (total volume 50 μL) was prepared and incubated at 37° C. Each of the reaction solutions at 0.5, 1, and 2 hours after initiation of the reaction was sampled and analyzed for protein by a fully automated electrophoresis system as mentioned above. In the chromatogram obtained, an unreacted product and a hydrolysate are confirmed as discrete peaks. From the peak-area ratio between the unreacted product and the hydrolysate, the hydrolysis rate of a sugar chain was calculated in accordance with the following expression.

A further data set has as its system human IgG1-4. The data set can be described thus: Substrate specificity in various antibodies (band shift in electrophoresis). Format: biochemical. The settings on record: 10 μg substrate, 1 μg enzyme, 37° C., pH 7.5, two hours. Here is the method: (§1) The hydrolysis activities of Endo-Si, EndoS and PNGaseF on various antibodies were measured as follows. A 50 mM Tris-HCl buffer (pH 7.5) solution (50 μL) containing each of various substrates (10 μg), and 1 μg Endo-Si WT was prepared and incubated at 37° C. As the substrate, human IgG1-4, IgA, and IgE (all manufactured by Sigma Aldrich) were used. As the controls, 1 μg of EndoS WT and 500 U PNGase F PRIME (manufactured by N-zyme Scientifics) were used. Two hours after initiation of the reaction, a sample was taken from the reaction solution and analyzed for protein by a fully automated electrophoresis system mentioned above.
(§2) When a sugar chain is hydrolyzed by addition of an enzyme, the band of a protein shifts to the lower molecular weight side compared to when the enzyme was not added.

The subject of another data set is IgA. The data set is described as above. Format: biochemical, human. The settings on record: 10 μg substrate, 1 μg enzyme, 37° C., pH 7.5, two hours. As to the method: as §1, §2
In a further data set the test system is IgE. The data set is described as above. Format: biochemical, human. Particulars: 10 μg substrate, 1 μg enzyme, 37° C., pH 7.5, two hours. As to the method: as §1, §2
A short description of data set [2]: Substrate specificity in various 2-AB labeled sugar chains (HPLC). The settings on record: 37° C., 24 hours. Format: biochemical. As to the method: The substrate specificity of Endo-Si in various sugar chains were measured as follows. A 50 mM Tris-HCl buffer (pH 7.5) solution (10 μL) containing 5 pmol of each of various sugar chains labeled with 2-AB (manufactured by Agilent Technologies) and 20 μg of Endo-Si WT, was prepared and incubated at 37° C. for 24 hours, and thereafter treated at 95° C. for 5 minutes to terminate the reaction. The reaction solution was subjected to HPLC analysis carried out under the following conditions.
[HPLC Analysis Conditions]
HPLC apparatus: 1200 Infinity LC (manufactured by Agilent Technologies)
Column: ACQUITY UPLC Glycan Amide 130 Å, 1.7 μm, 2.1×150 mm (manufactured by Waters)
Column temperature: 40° C.
Detector: Fluorescence detector RF-20Axs (manufactured by Shimadzu Corporation)
Mobile phase A: H2O+0.1% HCOOH
Mobile phase B: Acetonitrile+0.1% HCOOH
Gradient (mobile phase B %): 90% (0 minute), 40% (25 minutes)
Enzyme activity was calculated based on the peak area ratio between a substrate and a hydrolysate, GlcNAc-2AB. […] Of them, the activity on (specificity to) G0 sugar chain is the highest.

The subject of data set [3] is (Fucα1,6)GlcNAc-mAb2. The data set can be described thus: Transglycosylation activity with sugar chain oxazoline [N3-PEG(3)]-MSG1(9)-Ox as donor. Format: biochemical. The settings on record: donor [N3-PEG(3)]-MSG1(9)-Ox (8 eq.), enzyme 1.25 μg, 28° C., pH 7.5.
For data set [4], the system named is (Fucα1,6)GlcNAc-mAb2. The data set can be described thus: Transglycosylation activity with SGP as donor, in combination with Endo-M N175Q. Format: biochemical. The settings on record: donor SGP (50 eq.), Endo-M N175Q 2.5 mU, Endo-Si enzyme 10 μg, 23° C., pH 7.5. The procedure, abridged: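 (Fucα1,6)GlcNAc-mAb2 (0.5 mg) with SGP (50 eq.), Endo-M N175Q (2.5 mU) and Endo-Si mutant (10 μg) in 50 mM phosphate pH 7.5 at 23° C. Sampled at 2, 4, 6, 24 and 48 hours; rate from electrophoresis peak area ratio of unreacted versus mAb2-(SG)2.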

B1: Endo-Si WT: endo-β-N-acetylglucosaminidase derived from Streptococcus iniae, amino acid positions 34 to 928 in SEQ ID NO: 2 (protein, listed as Streptococcus iniae)
chain: REELKMPNGLEQSIADVEAKIDALTYLSKNSKDEFKHSMYEIPSNREHKPVSPKQALQNAKKADAQAERLAKMTIPKKEELKALEGPLYGGYFRTWQDKTSDPTETNKVNSFGELPKEVDLAFVFHDYTKDYSLFWEELATKQVPKLNKQGTRVIRTIPWRFLSGADHSDISADKEKFPNTEAGNKALAKAIVDEYVYKYNLDGLDIDIERDSVPKVNDKEDPEALARTVEVFKEIGKLIGANGADKSRLLIMDTTYTAEENPLIKETAQYLNLLLVQVYGFSGENGNYLHHKNILDETSSMEGRWQGYSKYIRPEQYMVGFSFYEEKDFNNRWKDINEEDPSDPHIGEKIQGTRAERYAKWQPKTGGLKGGLFSYAIDRDGVAQPKQKTEHPELDKIVKSEYKVSKALKKLMMTDDQYQPIDQSDFPDKALRESIIKQVGTRRGDLERFKGTLRLDNPEIKDLTGLNKLKRVAKLELINLPKITKIDKDDLPQNLKPLTDNQKSNLEIKGTYDDSKLYKDIPAFDLVISGLSGLESLDISGHQRDTLSGIDASTLPSLKAINISDNHFDLAQGTENRHILDTILATLAKNGASTASFDKQKPKGLYPESYSTAPLHLQVGQGKINVIDDLIFGTRTNQNTLINTENDFEAYKEQTIQGKPFIAPDYLYDNFKVSYKEYSASIVDSTLAETTDKTIDTAKAETYQVTVSNKDGKTVHSVKVIVGDEKPMMVNLAQDAKIIGTDNMTQSAKVFDGQKDQFLLSWNKDSSVIFELKTPGTAKHWRFFDDGKNDSVTLSVFKGDASNFETEKDKAENWVEITKDSRKNDDKVFSSPLEVDNAKYLKVTIKKEAKYIYFNELQILGYPGVVAKKTADDLRPTEADKSDDKSDKNDTEAK
As for B1, in data set [1], the “hydrolysis rate of a sugar chain” value is on record as 57.4%. Moreover, the “hydrolysis activity on the 4 subclasses of IgG” value with human IgG1-4 is reported as “exhibited hydrolysis activity”. In addition, the “hydrolysis activity on IgA” value in the data set with IgA is “no hydrolysis activity”. Further, in the data set with IgE, the “hydrolysis activity on IgE” value is on record as “no hydrolysis activity”. For the same molecule, the Relative activity in data set [2] (substrate 2-AB G0 (agafacto biantennary), reference regarded as 100%) is given as 100%; in data set [2] (substrate 2-AB G2 (asfato biantennary), activity against G0 sugar chain regarded as 100%) it was 73.2%; in data set [2] (substrate 2-AB G2F (core-fucosylated biantennary), activity against G0 sugar chain regarded as 100%), 50.1%; in data set [2] (substrate 2-AB G2S2 (a2,6) (sialyl biantennary), activity against G0 sugar chain regarded as 100%) it was 17.1%; in data set [2] (substrate 2-AB G3 (triantennary), activity against G0 sugar chain regarded as 100%) it was “Not detected”; in data set [2] (substrate 2-AB Man3, activity against G0 sugar chain regarded as 100%) it was 7.2%. For the same molecule, the Relative activity in data set [2] (substrate 2-AB Man 5, activity against G0 sugar chain regarded as 100%) was 1.9%; in data set [2] (substrate 2-AB Man6, activity against G0 sugar chain regarded as 100%), 6.6%; in data set [2] (substrate 2-AB Man8, activity against G0 sugar chain regarded as 100%), 5.2%; in data set [2] (substrate 2-AB Man9, activity against G0 sugar chain regarded as 100%), 3.3%. For the same molecule, the Transglycosylation rate in the data set with (Fucα1,6)GlcNAc-mAb2 [3] (1 h) came to 0.0%; with (Fucα1,6)GlcNAc-mAb2 [3] (2 h) it was 0.0%; with (Fucα1,6)GlcNAc-mAb2 [3] (4 h), 0.0%; with (Fucα1,6)GlcNAc-mAb2 [3] (6 h), 0.0%; with (Fucα1,6)GlcNAc-mAb2 [3] (24 h) it was 0.0%; in the data set with (Fucα1,6)GlcNAc-mAb2 [4] (2 h), 1.2%. Further, the Transglycosylation rate with (Fucα1,6)GlcNAc-mAb2 [4] (4 h) is on record as 1.1%; in the data set with (Fucα1,6)GlcNAc-mAb2 [4] (6 h), 0.0%; in the data set with (Fucα1,6)GlcNAc-mAb2 [4] (24 h), 0.0%; in the data set with (Fucα1,6)GlcNAc-mAb2 [4] (48 h), 0.0%.

The record behind these values is patent US20240336907A1, “NOVEL ENDO-ß-N-ACETYLGLUCOSAMINIDASE” (priority 2020, published 2024).
